PMC3169630
pKd: −log10 of the molar value.

Columns and labels:
[1] = molecular target: recombinant human Siglec-3 Fc fusion protein (human) (UniProt P20138); assay: SPR; BIAcore 3000, CM5 chip; Siglec-Fc immobilised at high density (12000–20000 RU); gp120 in PBS or HBS-P injected at 20 µL/min; KD from kinetic curve fitting
[2] = molecular target: recombinant human Siglec-5 Fc fusion protein (human) (UniProt O15389); assay: as above
[3] = molecular target: recombinant human Siglec-7 Fc fusion protein (human) (UniProt Q9Y286); assay: as above
[4] = molecular target: recombinant human Siglec-1-Fc (four N-terminal Ig domains of hSiglec-1 fused to the Fc regions of human IgG1) (human); assay: SPR; BIAcore 3000, CM5 chip; Siglec-Fc immobilised at moderate density (2000–7000 RU; capture with immobilized protein A or amine cross-link); gp120 10–500 nM in PBS or HBS-P injected at 20 µL/min; KD from kinetic curve fitting
[5] = molecular target: recombinant human Siglec-3 Fc fusion protein (human) (UniProt P20138); assay: as above
[6] = molecular target: recombinant human Siglec-5 Fc fusion protein (human) (UniProt O15389); assay: as above
[7] = molecular target: recombinant human Siglec-7 Fc fusion protein (human) (UniProt Q9Y286); assay: as above
[8] = molecular target: recombinant human Siglec-9 Fc fusion protein (human) (UniProt Q9Y336); assay: as above
Chain of UniProt Q9Y336 (Q9Y336 18-348): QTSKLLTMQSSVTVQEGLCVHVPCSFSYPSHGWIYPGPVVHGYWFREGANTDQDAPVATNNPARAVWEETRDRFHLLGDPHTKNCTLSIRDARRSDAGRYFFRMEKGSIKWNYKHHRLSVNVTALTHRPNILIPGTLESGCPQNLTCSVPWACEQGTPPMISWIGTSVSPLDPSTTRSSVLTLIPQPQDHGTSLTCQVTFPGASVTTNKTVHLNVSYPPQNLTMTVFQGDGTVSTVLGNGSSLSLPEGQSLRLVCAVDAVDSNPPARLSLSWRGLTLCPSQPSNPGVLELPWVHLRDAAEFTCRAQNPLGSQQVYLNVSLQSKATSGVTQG

Chain of UniProt Q9Y286 (Q9Y286 19-353): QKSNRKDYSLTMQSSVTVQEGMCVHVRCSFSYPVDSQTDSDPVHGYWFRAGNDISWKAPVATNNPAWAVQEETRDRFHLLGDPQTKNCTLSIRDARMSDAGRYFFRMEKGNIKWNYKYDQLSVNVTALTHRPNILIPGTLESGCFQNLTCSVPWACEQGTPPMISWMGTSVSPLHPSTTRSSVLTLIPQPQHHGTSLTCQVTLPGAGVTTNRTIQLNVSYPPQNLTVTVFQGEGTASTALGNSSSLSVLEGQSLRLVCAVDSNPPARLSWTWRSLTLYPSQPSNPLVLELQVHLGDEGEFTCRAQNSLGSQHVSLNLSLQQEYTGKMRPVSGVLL
Chain of UniProt O15389 (O15389 17-441): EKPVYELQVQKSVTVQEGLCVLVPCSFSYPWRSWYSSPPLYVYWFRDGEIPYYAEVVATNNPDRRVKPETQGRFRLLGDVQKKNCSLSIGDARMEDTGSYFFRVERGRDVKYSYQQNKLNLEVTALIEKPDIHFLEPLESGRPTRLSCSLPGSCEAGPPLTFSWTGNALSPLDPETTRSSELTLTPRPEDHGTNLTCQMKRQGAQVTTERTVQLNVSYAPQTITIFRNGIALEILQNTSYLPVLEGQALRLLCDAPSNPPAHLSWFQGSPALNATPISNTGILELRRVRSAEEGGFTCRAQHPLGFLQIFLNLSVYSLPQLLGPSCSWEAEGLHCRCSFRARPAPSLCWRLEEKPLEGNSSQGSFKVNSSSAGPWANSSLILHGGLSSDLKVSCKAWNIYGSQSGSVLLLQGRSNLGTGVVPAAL
Chain of UniProt P20138 (P20138 18-259): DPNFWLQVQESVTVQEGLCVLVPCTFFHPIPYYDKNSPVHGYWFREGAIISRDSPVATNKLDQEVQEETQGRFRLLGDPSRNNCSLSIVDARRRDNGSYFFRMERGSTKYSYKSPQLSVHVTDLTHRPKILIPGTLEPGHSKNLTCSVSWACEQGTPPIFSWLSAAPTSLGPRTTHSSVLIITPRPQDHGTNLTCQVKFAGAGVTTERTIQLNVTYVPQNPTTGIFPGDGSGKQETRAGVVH

Substance | pKd [1] | pKd [2] | pKd [3] | pKd [4] | pKd [5] | pKd [6] | pKd [7] | pKd [8]
recombinant gp120 from the 92UG21-9 HIV-1 isolate (natural protein) | 7.10 | 7.30 | 7.30 | 7.10 | 5.42 | 4.33 | 4.31 | 7.30
recombinant gp120 from the 92US715 HIV-1 isolate (natural protein) | 8.10 | 7.70 | 7.40 | 6.89 | 4.24 | 5.03 | 4.27 | 7.64
recombinant gp120 from the 93MW959 HIV-1 isolate (natural protein) | 7.92 | 7.82 | 7.70 |  |  |  |  | 
recombinant gp120 from the 93UG037 HIV-1 isolate (monomeric) (natural protein) | 7.29 | 7.27 | 7.03 | 5.20 |  | 4.69 | 5.00 | 7.00
recombinant gp120 from the SIVsmm PBj1.9 isolate (natural protein) | 6.74 | 7.85 | 7.72 | 6.92 | 4.26 | 4.30 | 4.45 | 6.57
trimeric gp120 from the 93UG037 strain fused with a trimerization domain from T4 bacteriophage fibritin |  |  |  | 6.05 |  | 5.29 | 5.57 | 7.10
